Values joined by “and” are separate entries in the source; they are usually repeats but may differ in a detail not shown here. Equal entries are not always repeated. Values belong to the molecule of their own block, whether it stands above or below them.
Tests used:
[1] = biological target: carcinoembryonic antigen (CEA) (UniProt P06731); assay: off-rate analysis on the yeast surface at 37 C
[2] = biological target: T1, carcinoembryonic antigen (CEA) (UniProt P06731 35-685, limits assumed, biotinylated (labelled form); unlabelled CEA (Calbiochem) used as competitor in the off-rate assays); assay: yeast surface display, off-rate analysis
T1 construct: also called biotinylated-CEA; bio-CEA
T1 sequence (looked up): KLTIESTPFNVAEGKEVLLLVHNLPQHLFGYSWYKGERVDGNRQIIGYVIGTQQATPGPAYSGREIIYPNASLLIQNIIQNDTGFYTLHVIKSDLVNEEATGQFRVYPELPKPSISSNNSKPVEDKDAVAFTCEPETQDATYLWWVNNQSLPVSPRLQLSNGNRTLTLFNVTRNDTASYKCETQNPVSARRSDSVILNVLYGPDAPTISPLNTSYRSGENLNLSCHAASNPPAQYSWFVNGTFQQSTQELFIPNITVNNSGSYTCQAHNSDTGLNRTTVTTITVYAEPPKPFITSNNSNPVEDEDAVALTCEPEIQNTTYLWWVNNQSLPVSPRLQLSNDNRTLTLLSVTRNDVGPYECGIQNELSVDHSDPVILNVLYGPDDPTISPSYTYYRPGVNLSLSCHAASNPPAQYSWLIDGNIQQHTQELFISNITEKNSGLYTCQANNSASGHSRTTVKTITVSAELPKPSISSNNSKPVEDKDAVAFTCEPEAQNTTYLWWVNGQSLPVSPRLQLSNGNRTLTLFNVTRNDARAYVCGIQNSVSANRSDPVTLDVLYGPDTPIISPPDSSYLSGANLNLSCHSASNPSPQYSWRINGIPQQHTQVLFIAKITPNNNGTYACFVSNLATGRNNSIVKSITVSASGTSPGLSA

[3] = biological target: T1, carcinoembryonic antigen (CEA); assay: off-rate analysis on the yeast surface at 37 C
[4] = biological target: T1, carcinoembryonic antigen (CEA); assay: yeast surface display, equilibrium titration with biotinylated CEA, flow cytometry, 37 C
Procedure: Equilibrium binding constants KD for CEA at 37° C. A) Plot of CEA binding (measured fluorescence) versus CEA concentration. B) CEA binding (normalized for different display levels) versus CEA concentration. […] C) Soluble production of MFE-23 (1) and hMFE (2) at 37° C. for 48 hours. Additional lanes are the scFvs produced at 37° C. and 20° C. for varying amounts of time.

[5] = biological target: T1, carcinoembryonic antigen (CEA); assay: yeast surface display, dissociation of biotinylated CEA in excess unlabelled CEA, flow cytometry
Procedure: Binding analysis of clones isolated from aggressive hMFE Library sort. A) Equilibrium Titration (Example 3). hMFE (kD±8.5±0.5 nM) (●), m9B (kD=0.8±0.1 nM) (▪), m10B (kD=0.08±0.01 nM) (♦)B). Off-rate. Dissociation rates were measured by first labeling yeast displaying the scFv of interest with biotinylated CEA. Then, the labeled cells were washed and incubated with an excess of nonbiotinylated CEA. Dissociation of labeled CEA from the cells was followed at the single cell level by flow cytometry and streptavidin-PE labeling, as described in Example 3. hMFE (koff=1.2±0.1×10⁻³ s⁻¹) (●), m9B (koff=7.5±0.4×10⁻⁵ s⁻¹) (▪), m10B (koff=6.0±0.4×10⁻⁶ s⁻¹) (♦).

[6] = biological target: T1, carcinoembryonic antigen (CEA); assay: yeast surface display, dissociation of biotinylated CEA in 100-fold excess unlabelled CEA at 37 C, flow cytometry
[7] = biological target: T1, carcinoembryonic antigen (CEA); assay: yeast surface display, equilibrium titration with biotinylated CEA
[8] = biological target: T1, carcinoembryonic antigen (CEA); assay: yeast surface display, equilibrium titration with biotinylated CEA, flow cytometry
[9] = biological target: T1, carcinoembryonic antigen (CEA); assay: yeast surface display, off-rate analysis with biotinylated CEA and excess unlabelled CEA, flow cytometry

B1: humanized MFE-23 (hMFE) scFv (scFv)
scFv: PYDVPDYALQASGGGGSGGGGSGGGGSASQVKLEQSGAEVVKPGASVKLSCKASGFNIKDSYMHWLRQGPGQRLEWIGWIDPENGDTEYAPKFQGKATFTTDTSANTAYLGLSSLRPEDTAVYYCNEGTPTGPYYFDYWGQGTLVTVSSGGGGSGGGGSGGGGSENVLTQSPSSMSASVGDRVNIACSASSSVSYMHWFQQKPGKSPKLWIYSTSNLASGVPSRFSGSGSGTDYSLTISSMQPEDAATYYCQQRSSYPLTFGGGTKLEIKAAAGSEQKLISEEDL
notes: also called hMFE-23; resurfaced scFv
half-life for binding to CEA [2]: 0.167 h
koff [3]: 0.0009 s⁻¹
Kd [4]: 8.3 nM and 8.5 nM
koff [5]: 0.0012 s⁻¹

B2: m7E (scFv)
chain: PYDVPDYALQASGGGGSGGGGSGGGGSASQVKLEQSGAEVVKPGASVKLSCKASGFNIKDSYMHWLRQGPGQRLEWIGWIDPENGDTEYAPKFQGKATFTTDTSANTAYLGLSSLRPEDTAVYYCNEGTPTGPYYFDYWGQGTLVTVSSGGGGSGGGGSGGGGSENVLTQSPSSMSASVGDRVNIACNASSSVSYMHWLQQKPGKSPKLWIYLTSNLAPGVPSRFSGSGSGTDYSLTISSMQPEDAATYYCQQRSSYPLTFGGGTKLEIKAAAGSEQKLISEEDL
koff [6]: 1.8e-06 s⁻¹

B4: hMFE+T98A (scFv)
chain: PYDVPDYALQASGGGGSGGGGSGGGGSASQVKLEQSGAEVVKPGASVKLSCKASGFNIKDSYMHWLRQGPGQRLEWIGWIDPENGDTEYAPKFQGKATFTTDTSANTAYLGLSSLRPEDTAVYYCNEGTPAGPYYFDYWGQGTLVTVSSGGGGSGGGGSGGGGSENVLTQSPSSMSASVGDRVNIACSASSSVSYMHWFQQKPGKSPKLWIYSTSNLASGVPSRFSGSGSGTDYSLTISSMQPEDAATYYCQQRSSYPLTFGGGTKLEIKAAAGSEQKLISEEDL
fold improvement in off-rate over hMFE [3]: 1.5 fold
koff [3]: 0.0006 s⁻¹

B6: m8E (scFv)
chain: PYDVPDYALQASGGGGSGGGGSGGGGSASQVKLEQSGAEVVKPGASVKLSCKASGFNIKDSYMHWLRQGPGQRLEWIGWIDPQNGDTEYAPKFQGKATFTTDTSANTAYLGLSSLRPEDTAVYYCNEGTPAGPYYFDYWGQGTLVTVSSGGGGSGGGGSGGGGSENVLTQSPSSMSASVGDRVNIACSASSSVSYMHWFQQKPGKSPKLWIYLTSNLAPGVPSRFSGSGSGTDYSLTISSMQPEDAATYYCQQRSSYPLTFGGGTKLEIKAAAGSEQKLISEEDL
koff [6]: 2.6e-06 s⁻¹

B9: m3E (scFv)
chain: PYDVPDYALQASGGGGSGGGGSGGGGSASQVKLEQSGAEVVKPGASVKLSCKASGFNIKDSYMHWLRQGPGQRLEWIGWIDPENGDTEYAPKFQGKATFTTDTSANTAYLGLSSLRPEDTAVYYCNEGTPTGPYYFDYWGQGTLVTVSSGGGGSGGGGSGGGGSENVLTQSPSSMSASVGDRVNIACSASSSVSYMHWLQQKPGKSPKLWIYLTSNLASGVPSRFSGSGSGTDYSLTISSMQPEDAATYYCQQRSSYPLTFGGGTKLEIKAAAGSEQKLISEEDL
half-life for binding to CEA [2]: ~168 h
koff [6]: 1.2e-06 s⁻¹

B10: m9B (scFv)
chain: PYDVPDYALQASGGGGSGGGGSGGGGSASQVKLEQSGAEVVKPGASVKLSCKASGFNIKDSYMHWLRQGPGQRLEWIGWIDPENGDTEYAPKFQGKATFTTDTSANTAYLGLSSLRPEDTAVYYCNEGTPTGPYYFDYWGQGTLVTVSSGGGGSGGGGSGGGGSENVLTQSPSSMSASVGDRVNIACSASSSVSYMHWLQQKPGKSPKLWIYSTSNLASGVPSRFSGSGSGTDYSLTISSMQPEDAATYYCQQRSSYPLTFGGGTKLEIKAAAGSEQKLISEEDL
fold improvement in the off-rate over hMFE [2]: 16 fold
fold improvement in the dissociation constant over hMFE [7]: 10 fold
Kd [8]: 0.8 nM
koff [5]: 7.5e-05 s⁻¹

B11: MFE-23 scFv (scFv)
scFv: QVKLQQSGAELVRSGTSVKLSCTASGFNIKDSYMHWLRQGPEQGLEWIGWIDPENGDTEYAPKFQGKATFTTDTSSNTAYLQLSSLTSEDTAVYYCNEGTPTGPYYFDYWGQGTTVTVSSGGGGSGGGGSGGGGSENVLTQSPAIMSASPGEKVTITCSASSSVSYMHWFQQKPGTSPKLWIYSTSNLASGVPARFSGSGSGTSYSLTISRMEAEDAATYYCQQRSSYPLTFGAGTKLELKRAA
notes: Tested on the yeast surface as an Aga2p fusion in pCTCON, with an HA tag N-terminal and a c-myc tag C-terminal of the scFv
Kd [4]: 8.3 nM and 7.5 nM

Results, then the molecule that gave them:

koff [1]: 1.2e-06 s⁻¹
Molecule: sm3E+T98A (scFv)

fold improvement in the off-rate over hMFE [2]: 200 fold
fold improvement in the affinity over hMFE [7]: 100 fold
Kd [8]: 0.08 nM
koff [5]: 6e-06 s⁻¹
B3: m10B (scFv)
chain: PYDVPDYALQASGGGGSGGGGSGGGGSASQVKLEQSGAEVVKPGASVKLSCKASGFNIKDSYMHWLRQGPGQRLEWIGWIDPENGDTEYAPKFQGKATFTTDTSANTAYLGLSSLRPEDTAVYYCNEGTPTGPYYFDYWGQGTLVTVSSGGGGSGGGGSGGGGSENVLTQSPSSMSASVGDRVNIACSASSSVSYMHWFQQKPGKSPKLWIYLTSNLASGVPSRFSGSGSGTDYSLTISSMQPEDAATYYCQQRSSYPLTFGGGTKLEIKAAAGSEQKLISEEDL

koff [3]: 8.2e-06 s⁻¹
koff [9]: 8.3e-06 s⁻¹
B5: sm10B (scFv)
chain: PYDVPDYALQASGGGGSGGGGSGGGGSASQVKLEQSGAEVVKPGASVKLSCKASGFNIKDSYMHWLRQGPGQRLEWIGWIDPENGDTEYAPKFQGKATFTTDTSANTAYLGLSSLRPEDTAVYYCNEGTPTGPYYFDYWGQGTLVTVSSGGGGSGGGGSGGGGSENVLTQSPSSMSASVGDRVTIACSASSSVPYMHWFQQKPGKSPKLLIYLTSNLASGVPSRFSGSGSGTDYSLTISSVQPEDAATYYCQQRSSYPLTFGGGTKLEIKAAAGSEQKLISEEDL

koff [9]: 0.00011 s⁻¹
B7: sm9B (scFv)
chain: PYDVPDYALQASGGGGSGGGGSGGGGSASQVKLEQSGAEVVKPGASVKLSCKASGFNIKDSYMHWLRQGPGQRLEWIGWIDPENGDTEYAPKFQGKATFTTDTSANTAYLGLSSLRPEDTAVYYCNEGTPTGPYYFDYWGQGTLVTVSSGGGGSGGGGSGGGGSENVLTQSPSSMSASVGDRVTIACSASSSVPYMHWLQQKPGKSPKLLIYSTSNLASGVPSRFSGSGSGTDYSLTISSVQPEDAATYYCQQRSSYPLTFGGGTKLEIKAAAGSEQKLISEEDL

koff [3]: 6.8e-06 s⁻¹
B8: sm10B+T98A (scFv)
chain: PYDVPDYALQASGGGGSGGGGSGGGGSASQVKLEQSGAEVVKPGASVKLSCKASGFNIKDSYMHWLRQGPGQRLEWIGWIDPENGDTEYAPKFQGKATFTTDTSANTAYLGLSSLRPEDTAVYYCNEGTPAGPYYFDYWGQGTLVTVSSGGGGSGGGGSGGGGSENVLTQSPSSMSASVGDRVTIACSASSSVPYMHWFQQKPGKSPKLLIYLTSNLASGVPSRFSGSGSGTDYSLTISSVQPEDAATYYCQQRSSYPLTFGGGTKLEIKAAAGSEQKLISEEDL

Source: patent US20050147614A1 (CANCER RESEARCH TECHNOLOGY, published 2005)
